The text below walks through data of article PMC3315512.

Experiment [1] has as its target CeHsc70-Δ545 (half-lid deletion of CeHsc70) (C. elegans) (UniProt P09446).
The target in experiment [2] is CeHsc70-Δ512 (lidless CeHsc70) (C. elegans) (UniProt P09446).
CeHsc70-Δ512 (lidless CeHsc70) (C. elegans), sequence (P09446 1-512, stated change not applied): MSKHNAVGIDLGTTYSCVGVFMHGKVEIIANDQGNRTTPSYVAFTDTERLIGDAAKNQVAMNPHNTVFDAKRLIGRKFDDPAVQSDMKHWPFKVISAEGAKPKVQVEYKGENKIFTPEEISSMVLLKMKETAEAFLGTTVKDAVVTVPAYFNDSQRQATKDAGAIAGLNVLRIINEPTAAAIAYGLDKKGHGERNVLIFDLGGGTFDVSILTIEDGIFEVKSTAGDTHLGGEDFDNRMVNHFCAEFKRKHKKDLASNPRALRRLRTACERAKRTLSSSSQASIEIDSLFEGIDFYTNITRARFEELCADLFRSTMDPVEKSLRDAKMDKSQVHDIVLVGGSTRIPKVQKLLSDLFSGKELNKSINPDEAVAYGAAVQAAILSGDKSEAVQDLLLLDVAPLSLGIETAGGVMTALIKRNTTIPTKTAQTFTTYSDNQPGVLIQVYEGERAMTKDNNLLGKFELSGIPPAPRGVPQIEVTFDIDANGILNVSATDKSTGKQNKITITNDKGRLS

DNJ-13 (C. elegans, unlabelled), Q20774 1-331 (natural protein), sequence (Q20774 entry or part of it): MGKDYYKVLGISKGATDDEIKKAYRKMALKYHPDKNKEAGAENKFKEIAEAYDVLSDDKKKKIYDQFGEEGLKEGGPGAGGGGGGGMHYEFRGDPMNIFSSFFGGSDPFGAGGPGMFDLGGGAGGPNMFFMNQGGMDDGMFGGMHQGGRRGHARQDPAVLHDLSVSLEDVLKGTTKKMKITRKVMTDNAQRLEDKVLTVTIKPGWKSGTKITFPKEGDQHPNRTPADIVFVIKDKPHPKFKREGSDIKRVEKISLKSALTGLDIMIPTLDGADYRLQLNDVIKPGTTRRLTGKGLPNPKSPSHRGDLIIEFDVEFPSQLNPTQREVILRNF
CeHsc70-Δ545 (half-lid deletion of CeHsc70) (C. elegans), sequence (P09446 1-545, stated change not applied): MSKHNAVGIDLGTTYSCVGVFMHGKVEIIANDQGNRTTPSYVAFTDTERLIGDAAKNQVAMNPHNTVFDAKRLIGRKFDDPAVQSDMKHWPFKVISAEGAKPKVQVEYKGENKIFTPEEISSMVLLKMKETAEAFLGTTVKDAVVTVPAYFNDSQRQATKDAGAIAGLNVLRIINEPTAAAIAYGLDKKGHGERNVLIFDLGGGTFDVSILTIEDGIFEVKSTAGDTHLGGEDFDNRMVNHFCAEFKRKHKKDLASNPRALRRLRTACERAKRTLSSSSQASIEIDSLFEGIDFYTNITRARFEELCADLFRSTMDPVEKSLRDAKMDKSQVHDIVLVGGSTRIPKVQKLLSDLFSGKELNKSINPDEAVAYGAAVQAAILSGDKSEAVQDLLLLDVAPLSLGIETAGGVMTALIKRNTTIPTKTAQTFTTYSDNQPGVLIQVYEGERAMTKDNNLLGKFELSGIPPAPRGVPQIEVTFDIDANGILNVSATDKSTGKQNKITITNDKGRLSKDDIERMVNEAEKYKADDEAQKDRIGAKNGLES

As to “DNJ-13 (C. elegans, unlabelled), Q20774 1-331 (natural protein)”, the apparent KD of DNJ-13 from titration of the steady-state ATPase activity, standard buffer, 25°C in experiment [1] is 4.2 µM. The apparent KD of DNJ-13 from titration of the steady-state ATPase activity of 1 µM CeHsc70-Δ512 in the presence of 2 µM BAG-1, standard buffer, 25°C in experiment [2] was 1.2 µM.
